# T1: CAPRIN-1 protein expressed on the cell surface of human cancer cells (human, UniProt Q14444 2-709)
# T1 sequence (looked up): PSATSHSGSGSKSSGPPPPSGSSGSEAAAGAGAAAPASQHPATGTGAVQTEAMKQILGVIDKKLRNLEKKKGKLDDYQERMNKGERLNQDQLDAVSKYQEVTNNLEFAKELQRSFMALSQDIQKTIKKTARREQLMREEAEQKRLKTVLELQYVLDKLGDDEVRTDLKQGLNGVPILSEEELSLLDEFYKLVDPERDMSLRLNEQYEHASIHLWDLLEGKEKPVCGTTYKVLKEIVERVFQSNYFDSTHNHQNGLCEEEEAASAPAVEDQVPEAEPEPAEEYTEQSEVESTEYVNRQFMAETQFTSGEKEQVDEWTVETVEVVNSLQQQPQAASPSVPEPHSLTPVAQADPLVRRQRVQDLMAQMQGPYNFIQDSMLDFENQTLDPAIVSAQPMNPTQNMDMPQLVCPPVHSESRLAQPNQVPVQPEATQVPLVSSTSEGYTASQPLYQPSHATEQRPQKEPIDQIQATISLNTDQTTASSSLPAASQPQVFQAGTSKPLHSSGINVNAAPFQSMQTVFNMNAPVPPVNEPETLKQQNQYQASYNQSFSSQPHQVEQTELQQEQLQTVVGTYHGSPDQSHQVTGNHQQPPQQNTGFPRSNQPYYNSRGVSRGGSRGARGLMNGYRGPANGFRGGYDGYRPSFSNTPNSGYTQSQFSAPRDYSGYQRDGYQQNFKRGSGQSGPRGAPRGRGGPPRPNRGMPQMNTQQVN
# Key:
# [1] = biological target: T1, CAPRIN-1 protein expressed on the cell …; experiment: cell-based or functional assay
# [2] = biological target: T1, CAPRIN-1 protein expressed on the cell …; experiment: flow cytometry, TGBC14TKB cells, culture supernatant, isotype control antibody as control
# Method: Subsequently, a gallbladder cell line TGBC14TKB, which was confirmed to express a CAPRIN-1 gene, was investigated for whether or not a CAPRIN-1 protein is expressed on the surfaces of these cells. 1×10⁶ cells of TGBC14TKB were centrifuged with a 1.5-mL micro centrifugation tube. To the cells was added the culture supernatant (100 μL) containing any of anti-CAPRIN-1 mouse monoclonal antibodies #1 to #22 reacting to cancer cell surface produced in Example 4 and anti-CAPRIN-1 mouse-chicken chimeric antibodies #1 to #3 produced in the above (2), followed by being left to stand on ice for 1 hour. After washing with PBS, the cells were suspended in a FITC-labeled goat anti-mouse IgG antibody (manufactured by life technologies) diluted by 500-fold with PBS containing 0.1% FBS, followed by being left to stand on ice for 1 hour. After washing with PBS, the fluorescence intensity was measured with FACS Calibur available from Becton, Dickinson and Company. Separately, as a control, the same procedure as in above was performed using an iso-type control antibody, instead of the culture supernatants containing the anti-CAPRIN-1 mouse monoclonal antibodies #1 to #22 and the mouse-chicken chimeric antibodies #1 to #3. As a result, the fluorescence intensity in the cells to which any of the monoclonal antibodies #1 to #22 and the mouse-chicken chimeric antibodies #1 to #3 was added was 20% or more higher than that in the control in every case. Specifically, in the case of using mouse-chicken chimeric antibody #1, the fluorescence intensity was enhanced by 200% or more. […] The rate of increase in the fluorescence intensity is represented by the rate of increase in the mean fluorescence intensity (MFI value) in each cell and is calculated by the following calculation formula: […]
Binder,"cytotoxicity (ADCC, 51Cr release) on TGBC14TKB, human NK cells [1] [%]",rate of increase in mean fluorescence intensity over control [2] [%],"ADCC activity on TGBC14TKB, method as in Example 12 [1] [%]"
"mouse monoclonal antibody #8 (antibody, V domains shown, mouse hybridoma antibody; also called anti-CAPRIN-1 mouse monoclonal antibody #8; anti-CAPRIN-1 monoclonal antibody #8) VH: GGGLVKPGGSLKLSCAASGFAFSSYDMSWIRQTPEKRLEWVAYISSGAGSTYYPDTVKGRFTVSRDNAKNTLYLQMSSLKSEDTAMYYCARHFYRFDYWGQGTTVTVSS VL: SIVMTQTPKFLLVSAGDRITITCKASQSVSNDVAWYQQKPGQSPKLLIYYASNRYTGVPDRFTGSGYGTDFTFTISTVQAEDLAVYFCQQDDRFPLTFGAGPS",≥ 15,≥ 20,
"mouse monoclonal antibody #12 (antibody, V domains shown, mouse hybridoma antibody; also called anti-CAPRIN-1 mouse monoclonal antibody #12; anti-CAPRIN-1 monoclonal antibody #12) VH: EVQLHQFGAELVKPGASVKISCKASGYTFTDYNMDWVKQSHGKSLEWIGDINPNYDSTSYNQKFKGKATLTVDKSSSTAYMELRSLTSEDTAVYYCARSRSYDYEGFAYWGQGTLVTVSA VL: DIQMTQSPASLSASVGETVTITCRASGNIHNYLAWYQQKQGKSPQLLVYNAKTLADGVPSRFSGSGSGTQYSLKINSLQPEDFGSYYCQHFWSTLTFGAGTKLELKR",≥ 15,≥ 20,
"mouse monoclonal antibody #13 (antibody, V domains shown, mouse hybridoma antibody; also called anti-CAPRIN-1 mouse monoclonal antibody #13; anti-CAPRIN-1 monoclonal antibody #13) VH: EVQLHQFGAELVKPGASVKISCKASGYTFTDYNMDWVKQSHGKSLEWIGDINPNYDSTSYNQKFKGKATLTVDKSSSTAYMELRSLTSEDTAVYYCARSRSYDYEGFAYWGQGTLVTVSAAKTTPPSVY VL: AVLRCSRGLLVIWISDIQLTQSPSSLAVTAGEKVTMSCKSSQSLLWSVNQKNYLSWYQQKQRQPPKLLIYGASIRESWVPDRFTGSGSGTDFTLTISNVHAEDLAVYYCQHNHGSFLPSRSEQVPSWRSNNR",≥ 15,≥ 20,
"mouse monoclonal antibody #14 (antibody, V domains shown, mouse hybridoma antibody; also called anti-CAPRIN-1 mouse monoclonal antibody #14; anti-CAPRIN-1 monoclonal antibody #14) VH: EVQLHQFGAELVKPGASVKISCKASGYTFTDYNMDWVKQSHGKSLEWIGDINPNYDSTSYNQKFKGKATLTVDKSSSTAYMELRSLTSEDTAVYYCARSRSYDYEGFAYWGQGTLVTVSA VL: DIQLTQSPASLSASVGETVTITCRASGNIHNYLAWYQQKQGKSPQLLVYNAKTLADGVPSRFSGSGSGTQYSLKINSLQPEDFGSYYCQHFWSTLTFGGGTKLEIKQ",≥ 15,≥ 20,
"mouse monoclonal antibody #15 (antibody, V domains shown, mouse hybridoma antibody; also called anti-CAPRIN-1 mouse monoclonal antibody #15; anti-CAPRIN-1 monoclonal antibody #15) VH: EVQLHQFGAELVKPGASVKISCKASGYTFTDYNMDWVKQSHGKSLEWIGDINPNYDSTSYNQKFKGKATLTVDKSSSTAYMELRSLTSEDTAVYYCARSRSYDYEGFAYWGQGTLVTVSA VL: SGDRVSLSCRASQSISNYLHWYQQKSHESPRLLIKYASQSISGIPSRFSGSGSGTDFTLSINSVETEDFGMYFCQQSNSWPYTFGAGTKLEIKQ",≥ 15,≥ 20,
"mouse monoclonal antibody #18 (antibody, V domains shown, mouse hybridoma antibody; also called anti-CAPRIN-1 mouse monoclonal antibody #18; anti-CAPRIN-1 monoclonal antibody #18) VH: LQESGAELARPGASVKLSCKASGYTFTSYWMQWVKQRPGQGLEWIGAIYPGDGDTRYTQKFKGKATLTADKSSSTAYMQLSSLASEDSAVYYCARGEYGNYFAYWGQGTTVTVSS VL: TSDASLGERVTITCKASQDINSYLSWFQQKPGKSPKTLIYRANRLVDGVPSRFSGSGSGQDYSLTISSLEYEDMGIYYCLQYDEFPLTFGGGTKLEIKQ",≥ 15,≥ 20,
"human-mouse chimeric anti-CAPRIN-1 antibody #27 (antibody, human IgG1, kappa, V domains shown) VH: GGGLVQPGGSMRLSCVASGFTFSNSWFNWVRQSPEKGLEWVAEIRLTSDNYAIYYAESVKGRFTISRDDSKSSVYLQMNNLRAEDTGIYYCTRPETARATFAYWGQGTTVTVSS VL: DVLMTQTPLSLPVSLGDQASISCRSSQSIVHSNGNTYLEWYLQKPGQSPKVLIYKVFNRFSGVPDRFSGSGSGTDFTLKISRVEAEDLGVYYCFQGSHVPRTFGGGTKLNQTG",,,≥ 20
"human-mouse chimeric anti-CAPRIN-1 antibody #28 (antibody, human IgG1, kappa, V domains shown) VH: GPDLVKPGASVKISCKASGYSFTAYYMHWVKQSHGKSLEWIGRVNPNNGGTTYNQKFKGKAILTVDKSSSTAYMELRSLTFEDSAVYYCARRIYYGYFDYWGQGTTVTVSS VL: AFFAVSLGQRATISCKASQSVDYDGDSYMNWYQQKPGQPPKLLIYVASNLESGVPARFSGSGSGTDFTLNIHPVEEEDAATYYCQQSNEDPYTFGGGTKLEIKQ",,,≥ 20
"human-mouse chimeric anti-CAPRIN-1 antibody #29 (antibody, human IgG1, kappa) heavy: not shown light: GTCGDIVMSQSPSSLAVSAGEKVTMSCKSSQSLLNSRTRKNYLAWVQHKPGQSPRLLIYWASTRESGVPDRFTGSGSGTDFTLTISSVQAEDLAVYYCRQSYNLVTFGAGPSTVAAPSVFIFPPSDEQLKSGTASVVCLLNNFYPREAKVQWKVDNALQSGNSQESVTEQDSKDSTYSLSSTLTLSKADYEKHKVYACEVTHQGLSSPVTKSFNRGEC",,,≥ 20
"mouse monoclonal antibody #3 (antibody, V domains shown) VH: GGGLVKPGGSLKLSCAASGFTFSSYGMSWVRQTPEKRLEWVATISSGGSYTYYPDSVKGRFTISRDNAKNTLYLQMSSLRSEDTAMYYCASLASYYFDYWGQGTTLTVSS VL: not shown",≥ 15,≥ 20,
mouse monoclonal antibody #6 (antibody) chain 1: DAELVKPGASVKISCKASGYTFTDHSIHWVQQKPEQGLEWIGYISPGNGNIKYNEKFKGKATLTADKSSSTAYMQLNSLTSEDSAVYFCKRSLGRGGPYYFDYWGQGTTVTVSS chain 2: DIVLTQAAPSLPVTPGESVSISCRSSKSLLHSNGNTYLYWFLQRPGQSPQLLIYRMSNLASGVPDRFSGSGSGTAFTLRISRVEAEDVGVYYCMQHREYPVTFGSGPN,≥ 15,≥ 20,
"mouse-chicken chimeric antibody #2 (antibody, mouse IgG1, V domains shown, also called anti-CAPRIN-1 mouse-chicken chimeric antibody #2) VH: AVTLDESGGGLQTPGGGLSLVCKASGFTFSSFDMGWVRQAPGKGLEFVAQINDAGSRTWYATAVKGRATISRDNGQTTVRLQLNNLRAEDTGTYYCTRGSGYVGAGAIDAWGHGTEVIVS VL: AALTQPSSVSANPGETVKITCSGGSGYYGWYQQQKSPGSAPVTVIYQNDKRPSDIPSRFSGSGSGSTNTLTITGVQAEDEAVYFCGRYDSTDSGIFGAGTTLTVL",,≥ 20,
"mouse-chicken chimeric antibody #3 (antibody, mouse IgG1, V domains shown, also called anti-CAPRIN-1 mouse-chicken chimeric antibody #3) VH: AVTLDESGGGLQTPGGALSLVCKASGFTFSGYDMLWVRQAPGKGLEWVAGIGSTGGGTDYGAAVKGRATISRDNGQSTVRLQLNNLRAEDTATYYCAKVAGGCNSGYCRDSPGSIDAWGHGTEVIVS VL: AVTQQPASVSANPGETVKITCSGGGSRNYYGWYQQKSPGSVPVTVIYYDDQRPSNIPSRFSGALSGSTSTLTITGVQADDEAVYFCGSADSNTYEGSFGAGTTLTVL",,≥ 20,

# — patent US20150299314A1 (TORAY INDUSTRIES, published 2015)
